Values quoted from earlier work, collected in patent US8840883B2, “Metallo-protein and tocotrienol (MP-T3) compositions with non-protein-type metal chelator and uses thereof” (Naidu LP, priority 2007, dated 2014).

System: macrophages incubated with acetylated low-density lipoproteins (LDL)

B1: bovine milk LF: bi-lobed glycoprotein of the transferrin family of iron-binding metallo-proteins, from bovine milk (protein, UniProt P24627 20-708, looked up)
Lactotransferrin: APRKNVRWCTISQPEWFKCRRWQWRMKKLGAPSITCVRRAFALECIRAIAEKKADAVTLDGGMVFEAGRDPYKLRPVAAEIYGTKESPQTHYYAVAVVKKGSNFQLDQLQGRKSCHTGLGRSAGWIIPMGILRPYLSWTESLEPLQGAVAKFFSASCVPCIDRQAYPNLCQLCKGEGENQCACSSREPYFGYSGAFKCLQDGAGDVAFVKETTVFENLPEKADRDQYELLCLNNSRAPVDAFKECHLAQVPSHAVVARSVDGKEDLIWKLLSKAQEKFGKNKSRSFQLFGSPPGQRDLLFKDSALGFLRIPSKVDSALYLGSRYLTTLKNLRETAEEVKARYTRVVWCAVGPEEQKKCQQWSQQSGQNVTCATASTTDDCIVLVLKGEADALNLDGGYIYTAGKCGLVPVLAENRKSSKHSSLDCVLRPTEGYLAVAVVKKANEGLTWNSLKDKKSCHTAVDRTAGWNIPMGLIVNQTGSCAFDEFFSQSCAPGADPKSRLCALCAGDDQGLDKCVPNSKEKYYGYTGAFRCLAEDVGDVAFVKNDTVWENTNGESTADWAKNLNREDFRLLCLDGTRKPVTEAQSCHLAVAPNHAVVSRSDRAAHVKQVLLHQQALFGKNGKNCPDKFCLFKSETKNLLFNDNTECLAKLGGRPTYEEYLGTEYVTAIANLKKCSTSPLLEACAFLTR
- decrease of accumulation of CE in macrophages: more than 80%
